The source of these data is US20230029835A1 (KEYMED BIOSCIENCES, published 2023).

The target of experiment [1] is T1, Cynomolgus macaques TSLP recombinant protein (Cynomolgus macaques, UniProt Q969D9 29-159 (human entry), limits assumed, biotinylated in the blocking assays (sites not given)).
T1 construct: also called cyTSLP; biotinylated Cynomolgus macaques TSLP protein
T1 chain: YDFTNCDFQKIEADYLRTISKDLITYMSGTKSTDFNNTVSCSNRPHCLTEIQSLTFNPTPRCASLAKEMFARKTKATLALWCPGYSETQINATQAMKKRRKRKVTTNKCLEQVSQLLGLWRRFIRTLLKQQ
The experiment in a line: ELISA on coated cynomolgus TSLP.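 Further: Read-out was TMB colorimetric signal measured as absorbance at 450 nm after 10 min development at 37 °C.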

Experiment [2] has as its target T2, human TSLP recombinant protein (human, UniProt Q969D9 29-159, biotinylated in the blocking and cell-binding assays (sites not given)).
T2 construct: also called biotinylated human TSLP protein
The experiment in a line: ELISA on coated human TSLP.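 Further: binding detected by TMB colour development for 10 min at 37 °C, then absorbance measured at 450 nm.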

The target of experiment [3] is T2, human TSLP recombinant protein. The experiment in a line: competition ELISA, biotin-human TSLP to coated human TSLPR-Fc.
Method: Human TSLPR recombinant protein was coated onto a 96-well microtiter plate at 1 μg/mL in carbonate buffer overnight at 4° C. The plate was washed three times with PBS and blocked by adding 200 μL/well of PBS containing 2% skim milk for 1 hour. […] The 96-well plate was washed three times with PBS, and 100 μL of the incubated mixture was added to each well and incubated for 1 hour at room temperature. After washing with PBST and PBS three times, respectively, 100 μL of SA-HRP was added to each well and incubated at room temperature for 30 minutes in the dark. After washing with PBST and PBS three times, respectively, 100 μL of TMB substrate was added to well for color development at 37° C. for 10 minutes, the reaction was terminated with 50 μL of 2M sulfuric acid solution per well, and the absorbance was read at a wavelength of 450 nm.
In experiment [4] the target is T1, Cynomolgus macaques TSLP recombinant …. The experiment in a line: competition ELISA, biotin-cynomolgus TSLP to coated cynomolgus TSLPR-Fc.
Method: Cynomolgus macaques TSLPR recombinant protein was coated onto a 96-well microtiter plate at 1 g/mL in carbonate buffer overnight at 4° C. The plate was washed three times with PBS and blocked by adding 200 μL/well of PBS containing 2% skim milk for 1 hour. […] The 96-well plate was washed three times with PBS, and 100 μL of the incubated mixture was added to each well and incubated for 1 hour at room temperature. After washing with PBST and PBS three times, respectively, 100 μL of SA-HRP was added to each well and incubated at room temperature for 30 minutes in the dark. After washing with PBST and PBS three times, respectively, 100 μL of TMB substrate was added to well for color development at 37° C. for 10 minutes, the reaction was terminated with 50 μL of 2M sulfuric acid solution per well, and the absorbance was read at a wavelength of 450 nm.

B1: Ab6 (antibody, V domains shown)
VH: QVQLVQSGAEVKKPGSSVKVSCKASGYTFTDYWMHWVRQAPGQGLEWMGTIDNSDSDTSLNQKFQGRVTLTVDTSTSTAYMELSSLRSEDTAVYYCARSLDGYYDYWGQGTLVTVSS
VL: DIQMTQSPSSLSASVGDRVTITCRASENIYSYLAWYQQKPGKAPKLLIYNARTLPEGVPSRFSGSGSGTDFTLTISSLQPEDFATYYCQHHYTTPWTFGQGTKVEIK
notes: Humanized; also called h39G5VHv6/h39G5VKv1
B1: in experiment [1], the binding result was “binds”. Moreover, the concentration giving a half-maximal response (EC50) in experiment [2] was 2.79 nM.

B2: Ab2 (antibody, V domains shown)
VH: QVQLVQSGAEVKKPGSSVKVSCKASGYSFISYWIHWVRQAPGQGLEWMGIIDPSDSDTSLNQKFQGRVTITADESTSTAYMELSSLRSEDTAVYYCARSLDGYYDYWGQGTLVTVSS
VL: DIQMTQSPSSLSASVGDRVTITCRASENIYSYLAWYQQKPGKAPKLLIYNARTLPEGVPSRFSGSGSGTDFTLTISSLQPEDFATYYCQHHYTTPWTFGQGTKVEIK
notes: Humanized; also called h39G5VHv2/h39G5VKv1
In the case of B2, the EC50 in experiment [1] worked out at 2.53 nM; in experiment [2], 0.21 nM. The values for the IC50 in experiment [3] and in experiment [4] were 1.49 nM and 1.1 nM, respectively.

B3: Ab27 (antibody, V domains shown)
VH: QVQLVQSGAEVKKPGSSVKVSCKASGYTFTDYWMHWVRQAPGQGLEWMGTIDNSDSDTSLNQKFQGRVTITADTSTSTAYMELSSLRSEDTAVYYCARSLDGYYDYWGQGTLVTVSS
VL: DIQMTQSPSSLSASVGDRVTITCRTSENIYSYLAWYQQKPGKAPKLLIYFAKTLTDGVPSRFSGSGSGTDFTLTISSLQPEDFATYYCQHHYGTPWTFGQGTKVEIK
notes: Humanized; also called h39G5VHv11/h71G4VKv1
Take B3: the EC50 in experiment [1] turned out to be 4.22 nM; in experiment [2] it was 1.08 nM.

B4: Ab5 (antibody, V domains shown)
VH: QVQLVQSGAEVKKPGSSVKVSCKASGYTFTDYWMHWVRQAPGQGLEWMGIIDPSDSDTSLNQKFQGRVTLTVDTSTSTAYMELSSLRSEDTAVYYCARSLDGYYDYWGQGTLVTVSS
VL: DIQMTQSPSSLSASVGDRVTITCRASENIYSYLAWYQQKPGKAPKLLIYNARTLPEGVPSRFSGSGSGTDFTLTISSLQPEDFATYYCQHHYTTPWTFGQGTKVEIK
notes: Humanized; also called h39G5VHv5/h39G5VKv1
Turning to B4, the concentration giving a half-maximal response (EC50) was determined as 2.85 nM in experiment [1] and 0.26 nM in experiment [2]. Further, the IC50 in experiment [3] stood at 1.69 nM; in experiment [4], 0.28 nM.

B5: Ab4 (antibody, V domains shown)
VH: EVQLVQSGAEVKKPGESLRISCKASGYSFISYWIHWVRQMPGKGLEWMGIIDPSDSDTSLNQSFQGHVTISADKSISTAYLQWSSLKASDTAMYYCARSLDGYYDYWGQGTLVTVSS
VL: DIQMTQSPSSLSASVGDRVTITCRASENIYSYLAWYQQKPGKAPKLLIYNARTLPEGVPSRFSGSGSGTDFTLTISSLQPEDFATYYCQHHYTTPWTFGQGTKVEIK
notes: Humanized; also called h39G5VHv4/h39G5VKv1
B5: the EC50 in experiment [1] stood at 5.54 nM; in experiment [2], 0.39 nM. Also, the IC50 in experiment [3] was 1.69 nM; in experiment [4], 0.43 nM.

B6: Ab7 (antibody, V domains shown)
VH: QVQLVQSGAEVKKPGSSVKVSCKASGYTFTDYWMHWVRQAPGQGLEWMGTIDNSDSDTSLNQKFQGRVTLTVDESSSTAYMELSSLRSEDTAVYYCARSLDGYYDYWGQGTLVTVSS
VL: DIQMTQSPSSLSASVGDRVTITCRASENIYSYLAWYQQKPGKAPKLLIYNARTLPEGVPSRFSGSGSGTDFTLTISSLQPEDFATYYCQHHYTTPWTFGQGTKVEIK
notes: Humanized; also called h39G5VHv7/h39G5VKv1
On to B6, for which the binding result in experiment [1] was “binds”. Moreover, the half-maximal effective concentration (EC50) in experiment [2] stood at 1.89 nM.

B7: Ab18 (antibody, V domains shown)
VH: QVQLVQSGAEVKKPGSSVKVSCKASGYTFTDYWMHWVRQAPGQGLEWMGTIDNSDSDTTYNQKFQGRVTMTRDTSTSTVYMELSSLRSEDTAVYYCARSVDGYLDYWGQGTLVTVSS
VL: DIQMTQSPSSLSASVGDRVTITCRASENIYSYLAWYQQKPGKAPKLLIYNARTLPEGVPSRFSGSGSGTDFTLTISSLQPEDFATYYCQHHYTTPWTFGQGTKVEIK
notes: Humanized; also called h71G4VHv3/h39G5VKv1
As for B7, the EC50 stood at 17.9 nM in experiment [1] and 2.15 nM in experiment [2].

B8: Ab16 (antibody, V domains shown)
VH: QVQLVQSGAEVKKPGSSVKVSCKASGYTFTDYWMHWVRQAPGQGLEWMGTIDNSDSDTTYNPSFQGHVTISADKSISTAYLQWSSLKASDTAMYYCARSVDGYLDYWGQGTLVTVSS
VL: DIQMTQSPSSLSASVGDRVTITCRASENIYSYLAWYQQKPGKAPKLLIYNARTLPEGVPSRFSGSGSGTDFTLTISSLQPEDFATYYCQHHYTTPWTFGQGTKVEIK
notes: Humanized; also called h71G4VHv1/h39G5VKv1
For B8, the figures for the 50% effective concentration (EC50) in experiment [1] and in experiment [2] were 12.6 nM and 5.87 nM, respectively.

B9: Ab17 (antibody, V domains shown)
VH: QVQLVQSGAEVKKPGSSVKVSCKASGYTFTDYWMHWVRQAPGQGLEWMGTIDNSDSDTTYNQKFQGRVTLTVDTSTSTAYMELSSLRSEDTAVYYCARSVDGYLDYWGQGTLVTVSS
VL: DIQMTQSPSSLSASVGDRVTITCRASENIYSYLAWYQQKPGKAPKLLIYNARTLPEGVPSRFSGSGSGTDFTLTISSLQPEDFATYYCQHHYTTPWTFGQGTKVEIK
notes: Humanized; also called h71G4VHv2/h39G5VKv1
Regarding B9, the EC50 in experiment [1] was determined as 4.44 nM; in experiment [2], 1.98 nM.

B10: Ab10 (antibody, V domains shown)
VH: QVQLVQSGAEVKKPGSSVKVSCKASGYTFTDYWMHWVRQAPGQGLEWMGIIDPSDSDTSLNQKFQGRVTITADTSTSTAYMELSSLRSEDTAVYYCARSLDGYYDYWGQGTLVTVSS
VL: DIQMTQSPSSLSASVGDRVTITCRASENIYSYLAWYQQKPGKAPKLLIYNARTLPEGVPSRFSGSGSGTDFTLTISSLQPEDFATYYCQHHYTTPWTFGQGTKVEIK
notes: Humanized; also called h39G5VHv10/h39G5VKv1
Regarding B10, the concentration giving a half-maximal response (EC50) in experiment [1] was 2.24 nM; in experiment [2], 0.32 nM. The IC50 amounted to 1.36 nM in experiment [3] and 0.37 nM in experiment [4].

B11: Ab1 (antibody, V domains shown)
VH: QVQLVQSGAEVKKPGSSVKVSCKASGYSFISYWIHWVRQAPGQGLEWMGIIDPSDSDTSLNQKFQGRVTLTVDKSSTTAYMELSSLRSEDTAVYYCARSLDGYYDYWGQGTLVTVSS
VL: DIQMTQSPSSLSASVGDRVTITCRASENIYSYLAWYQQKPGKAPKLLIYNARTLPEGVPSRFSGSGSGTDFTLTISSLQPEDFATYYCQHHYTTPWTFGQGTKVEIK
notes: Humanized; also called h39G5VHv1/h39G5VKv1
For the molecule B11, the 50% effective concentration (EC50) in experiment [1] is 2.29 nM; in experiment [2] it was 0.19 nM. Moreover, the half-maximal inhibitory concentration (IC50) in experiment [3] was 1.7 nM; in experiment [4], 1.78 nM.

B12: Ab3 (antibody, V domains shown)
VH: EVQLVQSGAEVKKPGESLRISCKASGYSFISYWIHWVRQMPGKGLEWMGIIDPSDSDTSLNQSFQGHVTLSVDKSSTTAYLQWSSLKASDTAMYYCARSLDGYYDYWGQGTLVTVSS
VL: DIQMTQSPSSLSASVGDRVTITCRASENIYSYLAWYQQKPGKAPKLLIYNARTLPEGVPSRFSGSGSGTDFTLTISSLQPEDFATYYCQHHYTTPWTFGQGTKVEIK
notes: Humanized; also called h39G5VHv3/h39G5VKv1
Turning to B12, the concentration for a half-maximal effect (EC50) stood at 2.22 nM in experiment [1] and 0.22 nM in experiment [2]. Also, the results for the half-maximal inhibitory concentration (IC50) in experiment [3] and in experiment [4] were 1.65 nM and 0.62 nM, respectively.

B13: Ab15 (antibody, V domains shown)
VH: EVQLVQSGAEVKKPGESLKISCKASGYTFTDYWMHWVRQMPGKGLEWMGTIDNSDSDTSLNQSFQGHVTISADKSSTTAYLQWSSLKASDTAMYYCARSLDGYYDYWGQGTLVTVSS
VL: DIQMTQSPSSLSASVGDRVTITCRASENIYSYLAWYQQKPGKAPKLLIYNARTLPEGVPSRFSGSGSGTDFTLTISSLQPEDFATYYCQHHYTTPWTFGQGTKVEIK
notes: Humanized; also called h39G5VHv15/h39G5VKv1
As for B13, in experiment [1], the binding result was “no binding”. In addition, the half-maximal effective concentration (EC50) in experiment [2] was 62.9 nM.

B14: Ab9 (antibody, V domains shown)
VH: EVQLVQSGAEVKKPGESLKISCKASGYTFTDYWMHWVRQMPGKGLEWMGTIDNSDSDTSLNQSFQGHVTLSVDKSSTTAYLQWSSLKASDTAMYYCARSLDGYYDYWGQGTLVTVSS
VL: DIQMTQSPSSLSASVGDRVTITCRASENIYSYLAWYQQKPGKAPKLLIYNARTLPEGVPSRFSGSGSGTDFTLTISSLQPEDFATYYCQHHYTTPWTFGQGTKVEIK
notes: Humanized; also called h39G5VHv9/h39G5VKv1
Take B14: the EC50 amounted to 209 nM in experiment [1] and 3.03 nM in experiment [2].

B15: Ab11 (antibody, V domains shown)
VH: QVQLVQSGAEVKKPGSSVKVSCKASGYTFTDYWMHWVRQAPGQGLEWMGTIDNSDSDTSLNQKFQGRVTITADTSTSTAYMELSSLRSEDTAVYYCARSLDGYYDYWGQGTLVTVSS
VL: DIQMTQSPSSLSASVGDRVTITCRASENIYSYLAWYQQKPGKAPKLLIYNARTLPEGVPSRFSGSGSGTDFTLTISSLQPEDFATYYCQHHYTTPWTFGQGTKVEIK
notes: Humanized; also called h39G5VHv11/h39G5VKv1
As to B15, the binding result in experiment [1] is “binds”. Besides, the concentration giving a half-maximal response (EC50) in experiment [2] was determined as 36 nM.

B16: Ab13 (antibody, V domains shown)
VH: EVQLVQSGAEVKKPGESLKISCKASGYTFTDYWMHWVRQMPGKGLEWMGIIDPSDSDTSLNQSFQGHVTISADKSISTAYLQWSSLKASDTAMYYCARSLDGYYDYWGQGTLVTVSS
VL: DIQMTQSPSSLSASVGDRVTITCRASENIYSYLAWYQQKPGKAPKLLIYNARTLPEGVPSRFSGSGSGTDFTLTISSLQPEDFATYYCQHHYTTPWTFGQGTKVEIK
notes: Humanized; also called h39G5VHv13/h39G5VKv1
For the molecule B16, the EC50 in experiment [1] is 5.68 nM; in experiment [2], 0.66 nM. Moreover, the results for the half-inhibitory concentration (IC50) in experiment [3] and in experiment [4] were 1.1 nM and 0.55 nM, respectively.

B17: Ab8 (antibody, V domains shown)
VH: EVQLVQSGAEVKKPGESLKISCKASGYTFTDYWMHWVRQMPGKGLEWMGIIDPSDSDTSLNQSFQGHVTLSVDKSSTTAYLQWSSLKASDTAMYYCARSLDGYYDYWGQGTLVTVSS
VL: DIQMTQSPSSLSASVGDRVTITCRASENIYSYLAWYQQKPGKAPKLLIYNARTLPEGVPSRFSGSGSGTDFTLTISSLQPEDFATYYCQHHYTTPWTFGQGTKVEIK
notes: Humanized; also called h39G5VHv8/h39G5VKv1
Consider B17, for which the figures for the 50% effective concentration (EC50) in experiment [1] and in experiment [2] were 5.51 nM and 0.4 nM, respectively. Besides, the IC50 in experiment [3] worked out at 2.05 nM; in experiment [4], 1 nM.
